Where two headings read alike, the source gives them in different places. Blank lines part the entries; values can stand above or below the substance they belong to.
Experiments:
GST-WW-domain of Pin1 = GST-WW-domain of Pin1 (UniProt Q13526)
[1] = biological target: Pintide analogue WFYpSPFLE; experiment: fluorescence anisotropy; high affinity site
[2] = biological target: Pintide analogue WFYpSPFLE; experiment: fluorescence anisotropy; low affinity site
[3] = biological target: Cdc25 Peptide EQPLpTPVTDL; experiment: fluorescence anisotropy, GST-WW-domain titrated on fluorescein-labeled peptide
[4] = biological target: Pintide analogue WFYpSPFLE; experiment: as above
[5] = biological target: proteins of labeled HeLa cell lysates pretreated with Ser phosphatases (CIP, PP1 and PP2A); experiment: pulldown from labeled HeLa lysates pretreated with Ser phosphatases
[6] = biological target: pT231 tau peptide (SEQ ID NO: 20); experiment: ELISA on peptide
[7] = biological target: Amyloid Precursor Protein Peptide … (pT-668); experiment: ELISA on peptide
[8] = biological target: pT231 tau peptide (SEQ ID NO: 20); experiment: ELISA on peptide; remark: listed apart in the source
[9] = biological target: Pintide analogue WFYpSPFLE; experiment: fluorescence anisotropy, fluorescein labeled Pintide; high affinity site
[10] = biological target: Pintide analogue WFYpSPFLE; experiment: fluorescence anisotropy (Table 2 prints 1.0 for the WW-domain)
[11] = biological target: tau peptide … (pT-231), SEQ ID NO: 29; experiment: ELISA on peptide

Chain of Nedd4 WW-domain-1 (P46935 249-282): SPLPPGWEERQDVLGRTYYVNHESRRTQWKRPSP

Substance: Cdc25C, in vitro translated (35S-Met), phosphorylated by Xenopus mitotic extracts
dephosphorylation of the bound Cdc25C by calf intestine phosphatase (CIP) (GST-WW-domain of Pin1): When mitotically phosphorylated Cdc25C was precipitated using GST beads containing Pin1 or its WW-domain, CIP failed to dephosphorylate Cdc25C.

Substance: GST-Pin1 (from UniProt Q13526 1-163) (enzyme)
Kd [1]: 1200 nM
Kd [2]: 13 µM

Substance: GST-Pin1^S16A (from UniProt Q13526 1-163) (enzyme)
Kd [1]: 1200 nM
Kd [2]: 10.5 µM

Substance: GST-Pin1^S16E (from UniProt Q13526 1-163) (enzyme)
Kd [2]: 10.5 µM

Substance: GST-Pin1^W34A (from UniProt Q13526 1-163) (enzyme)
Kd [2]: 14 µM

Substance: GST-WW-domain of Pin1 (from UniProt Q13526 1-54)
Kd [3]: 2.2 µM
Kd [4]: 1 µM

Substance: Nedd4 WW-domain-1 (from UniProt P46935 249-282)
fold reduction of binding against untreated lysates [5]: 10 fold

Substance: Pin1 PPIase domain (amino acids 47-163) (from UniProt Q13526 47-163) (enzyme)
Kd [2]: 15 µM

Substance: Pin1 WW-domain (amino acids 1-54) (from UniProt Q13526 1-54)
Kd [10]: 1200 nM
Kd [1]: 1000 nM

Now from value to substance:

Kd [1]: 2000 nM
Kd [2]: 13.5 µM
Substance: GST-Pin1^R14A (from UniProt Q13526 1-163) (enzyme)

Kd [1]: 1000 nM
Kd [2]: 12 µM
Substance: GST-Pin1^S18E (from UniProt Q13526 1-163) (enzyme)

Kd [2]: 13.5 µM
Substance: GST-Pin1^Y23A (from UniProt P08515 1-218; Q13526 1-163) (enzyme)

fold reduction of binding against untreated lysates [5]: 10 fold
Kd [3]: 20 µM
Kd [4]: 10 µM
Substance: Nedd4 WW-domain-2 (from UniProt P46935 405-438)

Kd [6]: 25 nM
Binding (OD@405 nm) [7]: 1.81 OD@405 nm
Binding (OD@405 nm) [8]: 1.46 OD@405 nm
Kd [8]: 40 nM
Kd [1]: 1200 nM
Kd [9]: 1200 nM
Kd [2]: 11 µM
Substance: Pin1 (from UniProt Q13526 1-163) (enzyme)

Binding (OD@405 nm) [11]: 1.3 OD@405 nm
Kd [9]: 2000 nM
Substance: Pin1^R14A (from UniProt Q13526 1-163) (enzyme)

Kd [9]: 1200 nM
Substance: Pin1^S16A (from UniProt Q13526 1-163) (enzyme)

Kd [9]: 5000 nM
Substance: Pin1^Y23F (from UniProt Q13526 1-163) (enzyme)
